The NTF2 design screens of Basanta et al. (2020)

Test: protease stability score; higher = more stable; yeast display proteolysis, trypsin and chymotrypsin;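 note: relative to predicted unfolded state with 0 unfolded-like and 1 meaning tenfold more protease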

Sequence	protease stability score
DERERLLLEWARKFMENLITGNEELLKEMHDPHYRSHIGDKDLVGREVHHEFWEKHFRHWRIEKFDVRDYHTQGDKARLVVRIVIDVDGRRIDTEIHIHYDIIDGQLRLVTLQYE	1.5
DERESFIKEVMEQFNRDLLTGDEEHFKERADPDVKIIFDGRETHGWKVLHHLLREIRIRHMHIDDYDIQGDKARVHSTADVEYGDKEDELKIEIRLVVINGRLKEVSIIFR	1.16
DERESLLEKLLRLWIELLKTGDEDTMLKLADPDAKYHVNGKDFHGWELASRIWFEERERLGIKHVHDHEIRFQGEKTELHGILLFDGVDVKFRIIIIVFNGRLHHVIVERD	1.53
DERFELFDWVVRLILHAHHTGDERIIHELADPNVRYIINGVTVHGRELMYRLAHEHLREIWVHHVQVRHFDVVGDFFRVEMEVVGLVNGVHYNEHRRLHLYVVNGRLKSSRIEIE	1.03
DERHDDRNHAIEAFKFMLDTGDWRVYSRNIDPNMRLEIGDKTFHGREELEHHITQIDHHHTHTLTIEHIDRVGDFVDIHITLSVTVIFDGRNETKTFHVDIHLVKIDGKWLIHKESVK	0.545
DERHDDSRDLAHIFLHLLHTGDEDTIQEYLDPNAKYTLNINGVRVIMHGRETITRHWKEWLDKFKNATIHINDSTVQGDKVHNHTSMEINGQTHNTWIVVVVFNGKVRMIIVDVI	1.29
DERHEDIKKFMELVLRLAKTGDEDHFSNMVDPHARLEIGDKHYIGRELVSTLFHEIRLHDMKIHNIISYGDKVKADVRLDIEFDGRRWNINTLLIIHKVNGQWLLESERRH	1.14
DERHEHAKEYLEMWLHSIFTGDERTLMELVDPNAKHLVNGRERHGRDELSRILIHIRMHVRDSKLRDMRVVGDKAIIHTEVDEELHFNGRTVRMIVEVEIYLFKVNGKWVFTEIRII	1.29
DERHEHTHELMRLLIEAFVTGDERLSEELADPHTRLHVNGVHNWGRERFVEVVRRLWSQVKNAKWTLRDFHVQGDKNEVVGDVHVDGQTIHVRFIFFVFNGRLESEEIRVH	2.4
DERHEHVREMSHRMEEWFETGDEDKWVKNADPNVITDINGQKLHGRENAARFLLHYHNRFKGMRFDIEDVDIQGEKVHIHSVQHFDGVKFDVRLIFEVFDGVIKSMHVEVK	0.706
DERHEKAERVTRELIKLLITGDEDLLDDLIDPNARIEIGDKVTHGRDKFSREISEMGVDHVELKEIHVYGDKAIIKGKLDINGKRNKFILIMEKINGRWFLRSMRVEDH	1.32
DERHELTRRVAVLWLHIFMTGDEDLFEKLADPTTRQEVLFNGRIYSLVGREEVSRWLREMVHELRFRHIEDKDKEIQGDKVLIDGILHIEAENHSTTIRSRIVLIVVNGKIHTIKFEFH	1.55
DERHETEERFLRTLIHSHMTGDEESHFEMMDPHAKLIYNGKEIHGMEVLRKELEEWRKKLGANHSHITIDHVELQGNKAHFDVTIDLIVDGRVIRTRIHIDIEKVDGRWIITRVIVK	0.489
DERHHRVKHWVHRFVHAWITGDERELRELLDPNVRLNFEFDGRREENVGRRDVDRFIHEILEKYKNVTIIFRDFEIVGDKFHLHTELIIGDKKHRIHIEINVINGQHEWIKIHIE	1.66
DERHKHDIEVAKEFLEVERTGDEHLLRRLADPHVLSNINGVHNHGRETVIEFWREWFEEWRVTEIKIRHLDAYDGRVRIEGRMRVIYDGREHTIDSEFRLVVVNGRLKSMELILH	-0.043
DERHKMIKDFAHLMLRARKTGDWDVMTRLFDPNTRVTQGDFELHGMESFSDWLHELHRQVPNVVEHDHSVDAFDGRVHLKTEERINGRILRIRIIIIVVDGKIKELRIEVD	1.37
DERHNKQWNKELIKIWTDGDHKKFSEMLDKDVQIQVGDKEYHGREEIVRQYKTLMDRADHFEVKRYEVKGNDITIIFTFQVNGRRDQVRVVFVIENGHVKKITMDKK	1.97
DERHQDLREVLTRLMHLLLTGDWDEFHRLADPSTQLEVGDFHFHGWEMVVEFLKRFYFHIRLRRFHIEHVRVINGRIDSDTRVESEVNGVRDVERTHVHLNKVDGRWVIKRMHME	0.966
DERHRYMKLFLDIFLHLYQTGDWDKLEHLADPHVKLIFENHELHGRDSFFRFILEWLRHMGVNHVEFHNIHYDLVGDKVHLEVRLIVFINGRIHHVIIHIIAEKIDGKWHLRSHEIRHE	1.34
DERKEDLDRALEEFLRSVETGDEELNERLADPNVKLVIDGVKYHGMEFIVKQLDEWRIHDMRIRRIRNVGEKVYVDLSVDGNFNGRRYRTEVKIVFTKINGRWLLETHIVD	1.87
DERKEHSIKVAKNIFNDILTGDEDRMKEMMDPDVKLHIGDKDVIGRENVIKFMIEEWNHIRFEDFKHKDVRVQGDKAILEGHINVEYGDKHRNVDSRYLVFVIDGRIKSIEIRLH	1.39
DERKEMTRHFTEEWIRLWETGDFEHMHDLFDPHARIIIDGQDHHGMEHVNERWRRIKNIRLEIKDFKVYGDKIFIDLKVTVNGREEKVEIIVVVVDGKFKMIEFRFV	2.11
DERKEYVEILVRILIELFLTGDWEHMLRLADPNMRFRIGDKETHGMEEAYKLMEELKEEIRIHEVRLTHIRVYGDFADTETRVHVEVGDKIVDYDMRLHLVVVNGQLRHITIEIE	0.731
DERKHFFDIALEILKKTIKTGDEREHNENVDPRVKNDINGVELHGMETVSEFHLRLWEEMRVEEIHIRDLDIQGNKAVFHTSLRRRYNGRELEIELHYIVVKVNGRWFIQEIIIR	1.57
DERKKATKETMRLEEEARNTGDEHELTKLVDPHVRLVIDGVNFIGWEVFLKRFNDLGADHVELRIDEIELIGDKVIVHGTLRIRVGDKETQEKVELYWLKINGRWVLEQVNHK	1.71
